Laboratory results from patent publication US20220389118A1 (Chugai, published 2022).
Values belong to the binder of their own block, whether it stands above or below them.

Tests used:
human IgE [1] = target: T1, human IgE (human); experiment: SPR (Biacore T200), human IgE held on SA chip by biotinylated GPC3 peptide, antibody as analyte, 37 C; pH7.4, 1.2 mM Ca; pH 7.4
T1 construct: Recombinant human IgE used as the antigen; its variable region is from an anti-human glypican 3 antibody; held on the chip by a biotinylated GPC3 peptide; also called hIgE
Method: (§1) Measurements were carried out using the following three types of running buffers:
(§2) An appropriate concentration of human IgE was injected and captured by the biotinylated GPC3 peptide to immobilize human IgE on the chip. […] Then, 10 mmol/L glycine-HCl (pH 1.5) was injected to regenerate the sensor chip. All of the assay for the interaction was performed at 37° C. Using Biacore T200 Evaluation Software (GE Healthcare), the assay results were analyzed by curve fitting to determine the binding rate constant ka (1/Ms) and dissociation rate constant kd (1/s). Dissociation constant KD (M) was calculated from the above constants.

human IgE [2] = target: T1, human IgE; experiment: SPR (Biacore T200), human IgE held on SA chip by biotinylated GPC3 peptide, antibody as analyte, 37 C; pH5.8, 3 µM Ca; pH 5.8
Method: as §1, §2

human IgE [3] = target: T1, human IgE; experiment: SPR (Biacore T200), human IgE held on SA chip by biotinylated GPC3 peptide, antibody as analyte, 37 C; pH5.8, 1.2 mM Ca; pH 5.8
Method: as §1, §2

human IgE [4] = target: T1, human IgE; experiment: SPR (Biacore T200), human IgE held on SA chip by biotinylated GPC3 peptide, antibody as analyte, 37 C; pH7.4, 1.2 mM Ca; pH7.4, 1.2 mM Ca; 37 C; pH 7.4
Method: as §1, §2

[5] = target: T2, human FcγRIIIa type V extracellular domain with C-terminal His tag (human, UniProt P08637 17-208); experiment: SPR (Biacore), binding amount
T2 construct: extracellular domain; also called FcγRIIIaV; FcgRIIIaV

[6] = target: T3, human FcγRIIb extracellular domain with C-terminal His tag (human, UniProt P31994 43-217); experiment: SPR (Biacore), binding amount
T3 construct: extracellular domain; also called FcgRIIb
T3 sequence (looked up): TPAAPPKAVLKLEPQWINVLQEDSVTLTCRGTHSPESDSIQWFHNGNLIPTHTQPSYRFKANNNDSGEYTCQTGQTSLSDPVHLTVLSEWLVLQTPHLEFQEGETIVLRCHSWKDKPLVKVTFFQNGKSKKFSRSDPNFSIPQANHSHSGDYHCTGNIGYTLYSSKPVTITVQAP

[7] = target: T4, human FcγRIa extracellular domain with C-terminal His tag (human, UniProt P12314 16-292); experiment: SPR (Biacore), binding amount
T4 construct: extracellular domain; also called FcgRIa

[8] = target: T5, human FcγRIIa type R extracellular domain with C-terminal His tag (human, UniProt P12318 34-217); experiment: SPR (Biacore), binding amount
T5 construct: extracellular domain; also called FcγRIIaR; FcgRIIaR
T5 sequence (looked up): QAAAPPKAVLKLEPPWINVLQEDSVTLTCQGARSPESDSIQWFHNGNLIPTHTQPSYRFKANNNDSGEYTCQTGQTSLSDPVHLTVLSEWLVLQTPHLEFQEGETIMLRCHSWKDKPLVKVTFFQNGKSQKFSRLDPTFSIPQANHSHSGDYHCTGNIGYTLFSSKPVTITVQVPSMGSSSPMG

[9] = target: T6, human FcγRIIa type H extracellular domain with C-terminal His tag (human, UniProt P12318 34-217); experiment: SPR (Biacore), binding amount
T6 construct: extracellular domain; also called FcγRIIaH; FcgRIIaH
T6 sequence (looked up): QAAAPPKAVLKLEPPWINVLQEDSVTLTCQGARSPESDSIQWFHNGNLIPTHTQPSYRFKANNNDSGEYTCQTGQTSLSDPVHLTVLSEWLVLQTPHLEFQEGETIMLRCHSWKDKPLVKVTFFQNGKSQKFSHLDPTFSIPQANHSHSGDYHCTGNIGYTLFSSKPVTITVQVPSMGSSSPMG

[10] = target: T7, human FcγRIIb extracellular domain with C-terminal His tag (human, UniProt P31994 43-217); experiment: SPR, amount of binding
T7 construct: extracellular domain; for crystals expressed with kifunensine and trimmed with Endo F1; also called FcγRIIb extracellular region
T7 sequence (looked up): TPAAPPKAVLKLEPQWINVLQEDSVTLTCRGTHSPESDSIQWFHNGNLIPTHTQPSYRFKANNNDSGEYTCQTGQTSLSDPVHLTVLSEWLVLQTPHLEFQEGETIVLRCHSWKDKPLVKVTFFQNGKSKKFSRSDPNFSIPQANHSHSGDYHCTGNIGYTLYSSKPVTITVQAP
Excerpt: (§3) These variants were expressed and purified by the method of Reference Example 2. These Fc variants are called PD variants. Interactions of each PD variant with FcγRIIa type R and FcγRIIb were comprehensively evaluated by the method of Reference Example 25.

[11] = target: T8, human FcγRIIa type R extracellular domain with C-terminal His tag (human, UniProt P12318 34-217); experiment: SPR, amount of binding
T8 construct: extracellular domain; also called FcγRIIaR; FcγRIIa R
T8 sequence (looked up): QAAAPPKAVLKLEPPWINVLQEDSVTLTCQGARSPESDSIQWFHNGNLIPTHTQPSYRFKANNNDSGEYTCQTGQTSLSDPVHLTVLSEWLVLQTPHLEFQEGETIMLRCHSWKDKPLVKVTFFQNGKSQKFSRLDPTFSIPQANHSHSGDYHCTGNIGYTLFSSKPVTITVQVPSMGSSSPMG
Excerpt: as §3

T1 sequence (heavy, as listed by the source, chain 1 of 2, other chains not shown): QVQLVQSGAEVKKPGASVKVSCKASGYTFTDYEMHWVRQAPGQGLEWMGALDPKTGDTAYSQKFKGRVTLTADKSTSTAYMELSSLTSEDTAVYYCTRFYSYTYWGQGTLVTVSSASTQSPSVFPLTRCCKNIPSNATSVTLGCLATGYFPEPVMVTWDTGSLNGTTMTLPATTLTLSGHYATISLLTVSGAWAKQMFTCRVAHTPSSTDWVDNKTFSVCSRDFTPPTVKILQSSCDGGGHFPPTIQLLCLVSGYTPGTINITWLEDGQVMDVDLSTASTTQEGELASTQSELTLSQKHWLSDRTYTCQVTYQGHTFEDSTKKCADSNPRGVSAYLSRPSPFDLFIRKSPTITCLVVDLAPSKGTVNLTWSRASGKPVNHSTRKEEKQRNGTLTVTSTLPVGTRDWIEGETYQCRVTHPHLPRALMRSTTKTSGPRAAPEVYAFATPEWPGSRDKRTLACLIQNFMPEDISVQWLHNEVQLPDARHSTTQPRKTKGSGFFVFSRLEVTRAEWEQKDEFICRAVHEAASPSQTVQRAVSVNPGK
T4 sequence (P12314 16-292): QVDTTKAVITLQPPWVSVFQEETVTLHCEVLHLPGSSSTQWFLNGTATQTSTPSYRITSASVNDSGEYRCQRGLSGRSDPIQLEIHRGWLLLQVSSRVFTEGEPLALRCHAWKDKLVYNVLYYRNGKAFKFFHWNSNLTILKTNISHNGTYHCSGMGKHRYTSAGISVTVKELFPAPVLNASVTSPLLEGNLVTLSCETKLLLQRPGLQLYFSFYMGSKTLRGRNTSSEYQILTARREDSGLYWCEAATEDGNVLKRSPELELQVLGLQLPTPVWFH
T2 sequence (P08637 17-208 F176V): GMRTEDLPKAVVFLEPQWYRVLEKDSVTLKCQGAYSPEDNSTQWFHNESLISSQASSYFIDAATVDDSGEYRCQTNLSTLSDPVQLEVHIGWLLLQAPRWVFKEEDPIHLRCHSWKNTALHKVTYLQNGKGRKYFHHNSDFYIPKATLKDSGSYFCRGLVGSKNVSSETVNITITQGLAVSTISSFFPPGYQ

- koff (human IgE [1]): 0.0036 s⁻¹
- koff (human IgE [2]): 0.24 s⁻¹
- kon (human IgE [2]): 62000 M⁻¹ s⁻¹
- koff (human IgE [3]): 0.23 s⁻¹
- kon (human IgE [3]): 120000 M⁻¹ s⁻¹
- kon (human IgE [4]): 1.5e+06 M⁻¹ s⁻¹
B1: 278-IgG1 (antibody, V domains shown)
VH: QSLEESGGRLVTPGTPLTLTCTASGFSLSSYHMSWVRQAPGKGLEWIGVINSAGNTYYASWAKGRFTVSKTSTTVDLNLTSLTTEDTATYFCARYVFSSGSHDIWGPGTLVTVSS
VL: AYDMTQTPASVEVAVGGTVTIKCQASQSIGSWLAWYQQKPGQPPKELIYGTSTLESGVPSRFIGSGSGTEFTLTISGVECADAATYYCQQGYSEDNIDNAFGGGTEVVVKR
notes: pH-dependent anti-human IgE antibody

- relative binding activity [5]: 157 % of IL6R-BF648/IL6R-L
- relative binding activity [6]: 164 % of IL6R-BF648/IL6R-L
- relative binding activity [7]: 104 % of IL6R-BF648/IL6R-L
- relative binding activity [8]: 449 % of IL6R-BF648/IL6R-L
- relative binding activity [9]: 188 % of IL6R-BF648/IL6R-L
B2: IL6R-BP198/IL6R-L (antibody, human IgG1, kappa)
heavy: QVQLQESGPGLVKPSETLSLTCAVSGHSISHDHAWSWVRQPPGEGLEWIGFISYSGITNYNPSLQGRVTISRDNSKNTLYLQMNSLRAEDTAVYYCARSLARTTAMDYWGEGTLVTVSSASTKGPSVFPLAPSSKSTSGGTAALGCLVKDYFPEPVTVSWNSGALTSGVHTFPAVLQSSGLYSLSSVVTVPSSSLGTQTYICNVNHKPSNTKVDKKVEPKSCDKTHTCPPCPAPDYLGGDSVFLFPPKPKDTLMISRTPEVTCVVVDVSDEDGEVKFNWYVDGVEVHNAKTKPREEQYNSTYRVVSVLTVLHQDWLNGKEYKCKVSNAALPKPIEKTISKAKGQPREPQVYTLPPSRDELTKNQVSLTCLVKGFYPSDIAVEWESNGQPENNYKTTPPVLDSDGSFFLYSKLTVDKSRWQQGNVFSCSVMHEALHNHYTQESLSLSP
light: not shown
notes: EU numbering; alterations on IL6R-B3; copies: 2 + 2

- relative binding activity [10]: 100 IL6R-F652/IL6R-L = 100
- relative binding activity [11]: 100 IL6R-F652/IL6R-L = 100
B3: IL6R-F652/IL6R-L (antibody, human IgG1, kappa)
heavy: QVQLQESGPGLVKPSETLSLTCAVSGHSISHDHAWSWVRQPPGEGLEWIGFISYSGITNYNPSLQGRVTISRDNSKNTLYLQMNSLRAEDTAVYYCARSLARTTAMDYWGEGTLVTVSSASTKGPSVFPLAPSSKSTSGGTAALGCLVKDYFPEPVTVSWNSGALTSGVHTFPAVLQSSGLYSLSSVVTVPSSSLGTQTYICNVNHKPSNTKVDKKVEPKSCDKTHTCPPCPAPELLGGDSVFLFPPKPKDTLYISRTPEVTCVVVDVSHEDPEVKFNWYVDGVEVHNAKTKPREEQYNSTYRVVSVLTVLHQDWLNGKEYKCKVSNKALPAPIEKTISKAKGQPREPQVYTLPPSRDELTKNQVSLTCLVKGFYPSDIAVEWESNGQPENNYKTTPPVLDSDGSFFLYSKLTVDKSRWQQGNVFSCSVMHEALHYHYTQKSLSLSP
light: not shown
notes: IL6R-F11 with P238D (EU numbering); copies: 2 + 2
